Earlier results as cited in US20140213534A1, “INTESTINAL HYPERPERMEABILITY AND PREVENTION OF SYSTEMIC DISEASE” (Thomas Jefferson University, priority 2011, published 2014).

Biological target: ST receptors (Homo sapiens, UniProt P25092)
Settings: relative to native ST; Currie et al. 1992

Chain of ST receptors (P25092 24-1073): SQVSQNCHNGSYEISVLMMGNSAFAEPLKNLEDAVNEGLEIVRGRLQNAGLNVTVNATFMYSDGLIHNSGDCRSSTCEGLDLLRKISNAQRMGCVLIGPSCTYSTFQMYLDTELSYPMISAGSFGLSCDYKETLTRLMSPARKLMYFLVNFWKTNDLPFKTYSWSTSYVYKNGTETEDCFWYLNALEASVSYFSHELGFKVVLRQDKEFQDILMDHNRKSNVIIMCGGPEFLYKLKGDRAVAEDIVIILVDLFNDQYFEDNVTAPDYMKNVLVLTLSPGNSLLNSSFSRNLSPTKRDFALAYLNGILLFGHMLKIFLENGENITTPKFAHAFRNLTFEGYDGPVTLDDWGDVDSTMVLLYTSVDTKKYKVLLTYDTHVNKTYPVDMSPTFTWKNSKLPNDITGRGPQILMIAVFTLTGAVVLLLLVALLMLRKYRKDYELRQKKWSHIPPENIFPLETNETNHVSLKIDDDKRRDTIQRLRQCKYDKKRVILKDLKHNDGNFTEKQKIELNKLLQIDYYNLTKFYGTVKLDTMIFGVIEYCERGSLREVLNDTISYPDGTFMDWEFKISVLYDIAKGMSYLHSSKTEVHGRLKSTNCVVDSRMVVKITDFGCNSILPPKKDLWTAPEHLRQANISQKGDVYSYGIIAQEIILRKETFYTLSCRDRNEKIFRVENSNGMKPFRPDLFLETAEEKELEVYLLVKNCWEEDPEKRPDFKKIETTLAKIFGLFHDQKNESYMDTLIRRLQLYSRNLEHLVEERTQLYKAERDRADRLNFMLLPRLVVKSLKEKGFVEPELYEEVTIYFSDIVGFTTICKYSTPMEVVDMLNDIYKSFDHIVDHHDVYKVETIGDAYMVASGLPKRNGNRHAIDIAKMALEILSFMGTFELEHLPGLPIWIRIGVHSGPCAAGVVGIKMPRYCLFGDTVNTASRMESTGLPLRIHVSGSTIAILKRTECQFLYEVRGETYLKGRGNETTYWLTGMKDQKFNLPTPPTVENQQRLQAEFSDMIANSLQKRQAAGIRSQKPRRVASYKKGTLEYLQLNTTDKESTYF

Substance: Guanylin: 15 amino acid peptide with about 50% sequence homology to ST, identified in mammalian intestine; endogenous GCC agonist (PNTCEICAYAACTGC; Rattus Norvegious)
- activates guanylate cyclase at a level fold less than native ST: 10- to 100 fold
